# Measurements taken from publication PMC8602850.
# Target: gC1qR-ΔΔ, gC1qR deletion mutant that removed the flexible, negatively charged loops (UniProt Q07021)
# Assay: SPR; gC1qR-WT or gC1qR-ΔΔ immobilised; two-fold dilution series of analyte injected; reference-corrected sensorgrams fit to kinetic models; apparent KD
# gC1qR-ΔΔ, gC1qR deletion mutant that removed the flexible, negatively charged loops, sequence (Q07021 74-282, stated change not applied): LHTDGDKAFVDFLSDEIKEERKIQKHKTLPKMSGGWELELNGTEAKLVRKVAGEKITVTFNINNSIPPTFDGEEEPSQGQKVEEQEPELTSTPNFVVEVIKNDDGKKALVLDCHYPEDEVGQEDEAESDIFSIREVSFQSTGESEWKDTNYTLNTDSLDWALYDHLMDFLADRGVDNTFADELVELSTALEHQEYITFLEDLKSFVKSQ
substance,measurement,value
"SARS-CoV-2 Membrane-Envelope fusion protein, recombinant",Kd,360 nM
